Results reported in patent US20140294844A1 (published 2014).

B1: ICSM-18 (antibody, V domains shown)
VH: EVQLQQSGPELVKPGSSVKISCKASRNTFTDYNLDWVKQSHGKTLEWIGNVYPNNGVTGYNQKFRGKATLTVDKSSSTAYMELHSLTSEDSAVYYCALYYYDVSYWGQGTLVTVSA
VL: QIVLTQSPAIMSASPGEKVTMTCSASSSVSYMHWYQQKSGTSPKRWIYDTSKLASGVPARFSGSGSGTSYSLTISSMEAEDAATYFCHQWRSNPYTFGGGTKLEIKR
B2: huPrP23-231 (receptor)
chain: not shown

Legend:
huPrP23-231 = target: B2
[1] = target: A[beta]-derived diffusible ligands (ADDL) prepared from A[beta]1-42 (UniProt P05067 672-713)
[2] = target: bADDL preparation from biotinylated A[beta]1-42 (bA[beta]1-42) (UniProt P05067 672-713)

Row | Binder | Kd (huPrP23-231) [nM] | Ki (huPrP23-231) [nM] | Kd [1] [nM] | Kd [2] [nM] | fold tighter binding than huPrP91-231 [2] [fold]
1 | B1 | ~10 | ~20 | – | – | –
2 | B2 | – | – | 100 | 82 | 100
